# Measurements reported in a protein production outcome set (Wang et al. 2014).
# Assay: label from the status in PepcDB records
row,Sequence,protein production
1,MDPWDTYNIPLDHQHRLRNRRDHRHPSFSSTLLDQIYRSIDDSSTNSSSMRKTKHQNREDTRVSANRRDDFNRSKNLKTIEPVFFKHSSSSSSDSSGFSSSESDYFYRRSKSSPAISHPKPIRTTVERFERSPQNHRPNSSNKQEHGSFLKTKSKALKIYSDLKKVKQPISPGGRLATFLNSIFTGAGNTKKLNKINTTVTSTTAAAAAASSTTTCSSASSFSRSCLSKTPSSSEKSKRSVRFCPVNVIFDEDSSKYNNKNNKVYGNNEREYESIRHTLENRVMEENRRVIEAAKELLRSYQKKNKEVIEVSVEDDEEDDDDDALSCTSSDLFELDNLSAIGIDRYREELPVYETTRLNTNRIISR,failed
2,MDQESNATSQDILKQHAAHYESDMGGLPEALVQLAEYAPETFDAYSRMRTTMLKSEADGAKLPLKYKHLILVVLDAIRDEPIGIVNHTRAAMNAGLSVDELIEGILLGIIVYGMPAWGKTGRKAVTFAVEFEKELAGKRT,not failed
3,MDQKELQVRKEIQELSFLIFTEPNNYKHYYERGILYGGEHIKSTECRESDYHGDYSQAIEDFDKVIELQPNFANAYYHKACIYFDLGIDDDEAESLLEKALALEPNNSAYTIKYAEVITYHGENGDIAAELLEKVLVQDYSADNCILSAGYLLQYASYDFLIGNDVQALQTYQKAMKRLQHAVEKDHECLEYATNMWSDFAEGCGYDHESIKNGSSLLLPQISVWM,failed
4,MDQKPQPAKTHATEVTVLEGKTMGTFWRASIPGIDAKRSAELKEKIQTQLDADDQLLSTYKKDSALMRFNDSQSLSPWPVSEAMADIVTTSLRIGAKTDGAMDITVGPLVNLWGFGPEQQPVQIPSQEQIDAMKAKTGLQHLTVINQSHQQYLQKDLPDLYVDLSTVGEGYAADHLARLMEQEGISRYLVSVGGALNSRGMNGEGLPWRVAIQKPTDKENAVQAVVDINGHGISTSGSYRNYYELDGKRLSHVIDPQTGRPIEHNLVSVTVIAPTALEADAWDTGLMVLGPEKAKEVVRREGLAVYMITKEGDSFKTWMSPQFKSFLVSEKNLEHHHHHH,not failed
5,MDQMEKITTGVSYTTSAVGTGYWFLQLLDRVSPSQWAAIGVLGSLLFGLLTYLTEVYWQ,failed
6,MDREALDRKRTWVTQGPIVKVILALATPIVAARLLAATQESVDAIFLGRVSTEDLAAPAAASPLLWLFAGLGIGINTTLSALVSQAIGARDYASAQRYASKLLGATLMLGAASALAIILTAETVFILQGFQGRSLEVALAYTLVEAVGMPFMLALFYFNAVMAASGDTRTPFKVSALSSILNVILDPILIFGLILLPPLGAVGAAVATVLARAAAVSIAFYLLLRGAPGFRVKPSMPDRQLIGHILRIGGPVSLQRLVVSMGFLVMMGIVARLGAPVVAAYNVSLVIIHIVQSATFGFNIATATVVGQNLGASNISRAVRAAYTGVALVFGLLSIGAVAIVGGRSMLVSLFTSIEEVQFYAERMISIVALGMPFLGAFFTAMGVARGSGRTAFISALGIARLWLLRIPAAYTLVYIYSLGDMGVWLAMTLSNIIAGTLAIAWVAGRTWAKPIVKRVPPEPLGEKPPAIPEPAINR,failed
7,MDRFENMNAFVRVVETGSISAAADRMDIAKSVVSRRLKELEEHLGVELFHRTTRQMNLTDSGRAFYQQSVRILADVLEAEHATSQFHGRLKGHLKVAVPLSFGLMHLGAAISTFLQTHPDIEFDLDFNDRQVDLLAEGFDLAIRIANLPDSSLIARRLAPIQAVMCASPAYLERMGTPQAPEELIRHRCLVYNLVSHSDNWNVYGTTGELIKTRIIPYLKASNGEFLRDAAVDGLGIVLLPTFIVYREIQRGALIPILTGYHYAQLAAYAIYPQTRHLSQRVRAFVDFLSQRFEGMPYWDACLNQ,failed
8,MDRGEQGLLRTDPVPEEGEDVAATISATETLSEEEQEELRRELAKVEEEIQTLSQVLAAKEKHLAEIKRKLGINSLQELKQNIAKGWQDVTATSAYKKTSETLSQAGQKASAAFSSVGSVITKKLEDVKNSPTFKSFEEKVENLKSKVGGTKPAGGDFGEVLNSAANASATTTEPLPEKTQESL,failed
9,MDRIIEKLDHGWWVVSHEQKLWLPKGELPYGERANFDLVGQRALQIGEWQGEPVWLVQQQRRHDMGSVRQVIDLDVGLFQLAGRGVQLAEFYRSHKYCGYCGHEMYPSKTEWAMLCSHCRERYYPQIAPCIIVAIRRDDSILLAQHTRHRNGVHTVLAGFVEVGETLEQAVAREVMEESGIKVKNLRYVTSQPWPFPQSLMTAFMAEYDSGDIVIDPKELLEANWYRYDDLPLLPPPGTVARRLIEDTVAMCRAEYE,not failed
10,MDRIPFGIRQLDSIINGGAPAGSVVLLSGEAGAGSREFMHTSALINGLEQVDTELHDLYYGDRSPDAVAPDEVHYISFTTNESQLVSEMRLAMDDDVVDKGSRAVEFHDLSERYFHISPVPREWYASETASITDLRARHEREDLLGTLGMVLNEVAANNLVVIDSLSDLVSAMGEEIEWSDISSLVQGLQKAAHQWGCLLLLHINPETLSTVRHGQLVDASHGTMEFAWESGGSTRARTLVVQQFRGVLSQIEDEDIVQFETELGDAGFDISDVRKIRLEHHHHHH,failed
11,MDRLSYAIGDKAVLNNIRVQFQPGSVTALLGPNGAGKSTLLKALCQEIPSAQGSIKLGHCQLVDWPRAELAKSLAVLPQHASLTFPFTVDEVVAMGLYPLTLSQKEGQQLVTKWLAEVGVLHLARRSYPTLSGGEKQRVQLARVLTQLSQSPFPPILLLDEPTSALDLAQQHKVLALAKNLAHKHAYTVIVVLHDLNQAARYSDRVIVLKQGEIVSEGTPNDALSIDIIRQVWDYEPEFIPAPQGDYPLIF,failed
12,MDRNEVRHAWDSVSETYAERRDPTGSDAALLEDLLERLPEAPTVLDVGCGDGARTLANLPPRSVGLDFSRAGLDLAAETVPDSRLVQGDMGSLPVTTDSVDAITAYHAVFHVQRDQHPEVYREFARVLRPGGTVLMTLPSGQFETVRRGWMGGSMFFSAPGRRATLDQLADAGFTETETVTATDPLGSDSEFVFATLADALEHHHHHH,not failed
13,MDRNLVQKGDAPPSKRSDPGTEFCVDIVVKGRKTEVPERFRKHVAEKLKLEKIQKLDGKVISLDVEVSKEPNPRQADRCDRVEITLRSRGPVIRAEAAASDPYAALDLAAEKLGARLRKQHDKRFSRRGARRISAAEVADHVPGAATLNGNGDVVPTEKQDGVPTKKIGSLEVQGDGPLVVREKTHVAAPMSLDQALYEMELVGHDFYLFVDSETKEPSVVYRRHAYDYGVIHLTTDTMVTQAHAPDAGDALGGLEHHHHHH,failed
14,MDRPETIAVKCEPMTVDSPSRPLKLVVLADLNFNPPETDDLDSSIPIPTPPPITRLSNEESHQEGGILTCKEVEPGEVEAKKISKVGKCRSRSKIESSSDCGVDADGDLANQGVPASREEKISNLKMGLIHVARKMPKNAHAHFILGLMFQRLGQSQKAIPEYEKAEEILLGCEPEIARPELLLLVQIHHGQCLLLDGFGDTDSVKELEGEELEEILSKLKDSIKLDVRQAAVWNTLGLMLLKAGCLMSAISVLSSLLALVPDNYDCLANLGVAYLQSGDMELSAKCFQDLVLKDHNHPAALINYAAELLCKHSSTVAGAGANGGADASEDQKAPMNVAKECLLAALRSDPKSAHAWVNLANSYYMMGDHRSSSKCLEKAAKLDPNCMATRFAVAVQRIKDAERSQDASDQLSWAGNEMASVIREGESVPIDPPIAWAGLAMAHKAQHEIAAAFVADRNELTEMEERAVYSLKQAVTEDPEDAVRWHQLGLHSLCSQQYKLSQKYLKAAVGRSRECSYAWSNLGISLQLSDEHSEAEEVYKRALTVSKEDQAHAILSNLGNLYRQKKQYEVSKAMFSKALELKPGYAPAYNNLGLVFVAERRWEEAKSCFEKSLEADSLLDAAQSNLLKATTMSRLCTCFSSSTVVRDS,failed
15,MDRPLSFAAVSFLATLVTLLVLMQTALVAGGPLRALVLASVGAIGTYFAIRSGVLKS,failed
